Source: PMC8448731 (Nature Communications, 2021)
Changes are numbered by the printed parent chain.

B1: SR2 (VHH)
VHH: EVQLVESGGGLVQAGDSLRLSCAASGAFGSNVFMGWFRQAPGKEREFVASITPHHTVTDYADSVRGRFSISADSAKNTVYLQMNSLKPEDTAVYYCAAAIYRNASVLDYWGQGTQVTVSS
notes: not shown: 6xHis, C-terminal, kept
B2: SR6c3 (VHH)
VHH: EVQLVESGGGLVQAGDSLRLSCAASGDCHVLWRMGWFRQAPGKEREFVAAISLDGQFTNYADSVRGRFSISADSAKNTVYLQMNSLKPEDTAVYYCAALPFLDYWGQGTQVTVSS
notes: as for B1
B3: SR6v9 (VHH)
VHH: B2 VHH with C28S, N77Y
notes: as for B1
B4: SR6v1 (VHH)
VHH: B2 VHH with C28S
notes: as for B1
B5: SR6v7 (VHH)
VHH: B2 VHH with C28S, H29Y, V30I
notes: as for B1
B6: SR12c3 (VHH)
VHH: EVQLVESGGGLVQAGDSLRLSCAASGAIVHVFAMGWFRQAPGKEREFVASINLDNDVTNYADSVKGRFTISRDDARNTVYLQMNSLKPEDTAVYYCNATIFTDSGLGDYWGQGTQVTVSS
notes: as for B1
B7: SR12 (VHH)
VHH: B6 VHH with V57A, T102M, G105D
notes: as for B1
B8: SR1 (VHH)
VHH: EVQLVESGGGLVQAGDSLRLSCAASGKTGRSVIMGWFRQAPDKEREFVATITRGDDTTNYADSVKGRFTISRDDARNTVYLQMNSLKPEDTAVYYCAAVYFVNDCIVDYWGQGTQVTVSS
notes: as for B1

Molecular target: T1, SARS-CoV-2 spike RBD with C-terminal 3xFlag tag and N-terminal signal peptide of the spike (RBD-3xFlag) (SARS-CoV-2, Wuhan-Hu-1 type (wild type), UniProt P0DTC2)
T1 construct: also called RBD-3×Flag; wild-type RBD; not shown: 3xFlag, C-terminal, kept
Assay: ELISA
Conditions: one partner purified

Binder | binding result
B1 | binds
B2 | binds
B3 | binds
B4 | binds
B5 | binds
B6 | binds
B7 | binds
B8 | binds
